This passage reports IC50 of CCL1 blocking (Ca2+ influx, CHO/hCCR8.Gna15 cells), induction fold and induction fold, mFcgRIV Jurkat NFAT-luciferase reporter with CHO/hCCR8, results from patent US20250297019A1.

In this assay the target is human CCR8 (human) (UniProt P51685). Kind of assay: cell-based or functional assay.

B1: murine anti-human CCR8 mAb 433H (BD Biosciences) (antibody, from another filing, mouse IgG2a, V domains shown)
VH: EVQLVETGGGLVQPKGSLRLSCAASGFPFNTFAMNWVRQAPGKGLEWLARIRSKSNNYATYYADSVKDRFTISRDDSRRMLYLLMNNVKFEDTAIYYCVRGKENNYGYAMDYWGQGTSVTVSS
VL: DIVMTQAAPSVPVTPGESVSISCRSSQSLLHSNGNTYLYWFLQRPGQSPQLLIYRMSNLASGVPDRFSGSGSGTAFTLRISRVEAEDVGVYYCMQHLEYPFTFGIGTKLELKR
On to B1, for which the IC50 of CCL1 blocking (Ca2+ influx, CHO/hCCR8.Gna15 cells) came to 17.6 nM; the induction fold at plateau (about 40 nM antibody), mFcgRIV Jurkat reporter with CHO/hCCR8 turned out to be 13 fold; the induction fold, mFcgRIV Jurkat NFAT-luciferase reporter with CHO/hCCR8, at about 1 nM antibody is > 12 fold.
